In FireProtDB (doi:10.1016/j.jmb.2005.05.056):
Where “and” joins values, the source holds several entries; their conditions need not be identical. Equal values may be shown once.

Settings: Thermus thermophilus; pH 8; 25 °C; GdnHCl; Fluorescence; Tris-HCl 50 mM; reversible: No; whole UniProt chain shown

B1: Small ribosomal subunit protein bS6 wild type, P23370 (protein)
chain: MRRYEVNIVLNPNLDQSQLALEKEIIQRALENYGARVEKVEELGLRRLAYPIAKDPQGYFLWYQVEMPEDRVNDLARELRIRDNVRRVMVVKSQEPFLANA
denaturant m value: 2.54 kcal/mol/M and 2.76 kcal/mol/M and 2.7 kcal/mol/M
